Laboratory results taken from patent publication US20090191187A1 (published 2009).
Substitutions are numbered along the chain they refer to. Several values for one entry are separate records, joined by “and”; a condition that tells them apart may be missing. Identical values can stand only once.

T1: human interleukin-1 receptor on cells (MRC-5 human embryonic lung fibroblasts; human blood cells) (human, UniProt P14778 18-569)
T1 sequence (looked up): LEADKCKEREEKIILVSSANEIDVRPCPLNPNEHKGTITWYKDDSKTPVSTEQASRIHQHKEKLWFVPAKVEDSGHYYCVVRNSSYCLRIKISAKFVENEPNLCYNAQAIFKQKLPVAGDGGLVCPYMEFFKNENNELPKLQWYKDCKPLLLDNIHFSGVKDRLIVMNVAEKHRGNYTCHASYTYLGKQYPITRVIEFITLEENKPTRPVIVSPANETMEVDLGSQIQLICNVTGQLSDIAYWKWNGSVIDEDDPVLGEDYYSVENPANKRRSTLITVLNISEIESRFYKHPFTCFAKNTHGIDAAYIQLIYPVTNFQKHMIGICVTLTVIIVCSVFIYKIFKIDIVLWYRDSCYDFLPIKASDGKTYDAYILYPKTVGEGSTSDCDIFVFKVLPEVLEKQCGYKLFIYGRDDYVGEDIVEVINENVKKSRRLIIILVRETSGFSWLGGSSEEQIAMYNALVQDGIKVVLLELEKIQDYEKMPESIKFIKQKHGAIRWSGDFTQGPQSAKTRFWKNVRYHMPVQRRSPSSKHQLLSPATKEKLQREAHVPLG

T2: recombinant soluble human type 1 IL-1 receptor (extracellular domain, glycosylated) (human, UniProt P14778 21-333, N-glycosylated (from SF9 insect cells); biotinylated in the ELISA of Examples 2 and 4c)
T2 construct: also called hIL-1R; rshIL-1R
T2 sequence: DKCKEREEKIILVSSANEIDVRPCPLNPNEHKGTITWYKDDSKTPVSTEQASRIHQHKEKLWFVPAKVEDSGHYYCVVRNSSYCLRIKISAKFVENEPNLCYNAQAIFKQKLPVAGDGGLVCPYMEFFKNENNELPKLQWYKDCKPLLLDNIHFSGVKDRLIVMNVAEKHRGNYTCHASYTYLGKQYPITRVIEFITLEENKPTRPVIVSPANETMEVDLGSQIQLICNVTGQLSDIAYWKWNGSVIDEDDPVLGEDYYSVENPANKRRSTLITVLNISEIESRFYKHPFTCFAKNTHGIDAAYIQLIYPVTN

B1: chimeric 2D8 (IgG1) (antibody)
heavy: not shown
light: DIVLTQAPVLAVSLEQRATISCKASQNVDNRGVSYVHWYQQKPRQQPKLLIYKGSNLAFGVPARFSGSGSRTDFTLTIDPVETDDFATYYCQQSKGHPDTFGAGTKLELKRTVAAPSVFIFPPSDEQLKSGTASVVCLLNNFYPREAKVQWKVDNALQSGNSQESVTEQDSKDSTYSLSSTLTLSKADYEKHKVYACEVTHQGLSSPVTKSFNRGEC
B2: chimeric 2D8 (IgG4) (antibody)
heavy: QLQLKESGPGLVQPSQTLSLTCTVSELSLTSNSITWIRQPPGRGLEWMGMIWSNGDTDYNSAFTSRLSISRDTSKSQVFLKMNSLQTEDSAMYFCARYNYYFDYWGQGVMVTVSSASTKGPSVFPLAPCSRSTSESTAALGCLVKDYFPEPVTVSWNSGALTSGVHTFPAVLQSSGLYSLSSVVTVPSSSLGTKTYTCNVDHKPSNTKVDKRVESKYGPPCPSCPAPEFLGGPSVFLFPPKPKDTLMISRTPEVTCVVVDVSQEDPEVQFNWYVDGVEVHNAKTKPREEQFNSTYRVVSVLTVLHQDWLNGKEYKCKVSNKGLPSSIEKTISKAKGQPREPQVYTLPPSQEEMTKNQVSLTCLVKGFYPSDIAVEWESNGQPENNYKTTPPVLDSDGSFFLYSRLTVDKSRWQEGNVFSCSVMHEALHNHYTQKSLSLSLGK
light: B1 light
B3: antibody 2D8 (rat monoclonal antibody against human interleukin-1 receptor, from hybridoma cell line MAK<h-IL-1RI>2D8, DSM ACC 2601) (antibody, V domains shown)
VH: QLQLKESGPGLVQPSQTLSLTCTVSELSLTSNSITWIRQPPGRGLEWMGMIWSNGDTDYNSAFTSRLSISRDTSKSQVFLKMNSLQTEDSAMYFCARYNYYFDYWGQGVMVTVSS
VL: DIVLTQAPVLAVSLEQRATISCKASQNVDNRGVSYVHWYQQKPRQQPKLLIYKGSNLAFGVPARFSGSGSRTDFTLTIDPVETDDFATYYCQQSKGHPDTFGAGTKLEL
B4: DEI5/4 (antibody, V domains shown)
VH: QLQLQESGPGLVKPSQTLSLTCTVSGLSLTSNSITWIRQPPGKGPEWMGMIWSNGDTDYSTSLKSRLTISKDTSKSQVVLTMTNMDPVDTATYYCARYNYYFDYWGQGTLVTVSS
VL: DIVLTQSPATLSLSPGERATLSCKASQNVDNRGVSYVHWYQQKPGQAPKLLIYKGSNLAFGVPARFSGSGSGTDFTLTISSLQPEDFATYYCQQSKGHPDTFGAGTKLELK
B5: DEI4/7 (antibody, V domains shown)
VH: QLQLQESGPGLVKPSQTLSLTCTVSGLSLTSNSITWIRQPPGKGPEWMGMIWSNGDTDYNSAFTSRFTISRDNSKNTLYLQMNSLKTEDTAVYYCARYNYYFDYWGQGTLVTVSS
VL: B4 VL with Y91F
B6: HUM2/2 (antibody, V domains shown)
VH: QVQLQESGPGLVKPSETLSLTCTVSELSLTSNSITWIRQPPGKGLEWIGMIWSNGDTDYNSAFTSRVTISRDTSKNQFSLKLSSVTAADTAVYYCARYNYYFDYWGQGTLVTVSS
VL: B4 VL with D1E, K49R, G72R, Q83E, A104Q, L108V, L110I
notes: Humanized variant of 2D8
B7: DEI5/9 (antibody, V domains shown)
VH: B4 VH
VL: B4 VL with A64S
B8: DEI4/5 (antibody, V domains shown)
VH: B5 VH
VL: B4 VL with L21I
notes: also called combination of HURDIVHv4 and HURDIVKv5
B9: DEI5/5 (antibody, V domains shown)
VH: B4 VH
VL: B4 VL with L21I
notes: also called combination of HURDIVHv5 and HURDIVKv5
B10: DEI2/9 (antibody, V domains shown)
VH: B4 VH with I37V, P40A, K43Q, P45L
VL: B4 VL with A64S
notes: also called combination of HURDIVHv2 and HURDIVKv9
B11: DEI1/8 (antibody, V domains shown)
VH: B5 VH with I37V, P40A, K43Q, P45L
VL: B4 VL with A64S, Y91F
B12: DEI2/8 (antibody, V domains shown)
VH: B4 VH with I37V, P40A, K43Q, P45L
VL: B4 VL with A64S, Y91F
notes: also called combination of HURDIVHv2 and HURDIVKv8
B13: DEI2/4 (antibody, V domains shown)
VH: B4 VH with I37V, P40A, K43Q, P45L
VL: B4 VL
notes: also called combination of HURDIVHv2 and HURDIVKv4
B14: HUM2/3 (antibody, V domains shown)
VH: B6 VH
VL: B4 VL with D1E, L21I, A47Q, G72R, Q83E, A104Q, L108V, L110I
notes: also called combination of HUR HuVH v2 and HUR HuVK v3
B15: DEI5/7 (antibody, V domains shown)
VH: B4 VH
VL: B4 VL with Y91F
B16: DEI4/9 (antibody, V domains shown)
VH: B5 VH
VL: B4 VL with A64S

Target: T1, human interleukin-1 receptor on cells …
Assay: cell-based or functional assay

Binder | IC 50 for the inhibition of IL-8 secretion (h-IL1β stimulated MRC-5 cells)
B1 | 4.7 pM and 0.71 ng/ml
B2 | 5.1 pM and 0.77 ng/ml
B3 | 7.2 pM and 1.08 ng/ml

Target: T1, human interleukin-1 receptor on cells …
Assay: cell-based or functional assay
Remark: another data set of the same source

Binder | Bioassay (IC50 in relation to 2D8), Mean | Bioassay (IC50 in relation to 2D8), 1st experiment | Bioassay (IC50 in relation to 2D8), 2nd experiment
B3 | 1 relative to 2D8 |  | 
B4 | 2.5 relative to 2D8 | 3.1 relative to 2D8 | 1.9 relative to 2D8
B5 | 3.5 relative to 2D8 | 3.4 relative to 2D8 | 3.5 relative to 2D8
B6 | 1 relative to 2D8 | 0.9 relative to 2D8 | 1 relative to 2D8
B7 | 2.2 relative to 2D8 | 1.6 relative to 2D8 | 2.8 relative to 2D8
B8 | 3 relative to 2D8 | 1.5 relative to 2D8 | 4.5 relative to 2D8
B9 | 4.6 relative to 2D8 | 5.2 relative to 2D8 | 3.9 relative to 2D8
B10 | 2.8 relative to 2D8 | 2.7 relative to 2D8 | 2.8 relative to 2D8
B11 | 2 relative to 2D8 | 3.2 relative to 2D8 | 0.7 relative to 2D8
B12 | 2.4 relative to 2D8 | 3.3 relative to 2D8 | 1.4 relative to 2D8
B13 | 2.3 relative to 2D8 | 2.5 relative to 2D8 | 2 relative to 2D8
B14 | 1.2 relative to 2D8 | 0.8 relative to 2D8 | 1.5 relative to 2D8
B15 | 2.3 relative to 2D8 | 3.4 relative to 2D8 | 1.2 relative to 2D8
B16 | 4.7 relative to 2D8 | 5.2 relative to 2D8 | 4.1 relative to 2D8

Target: T2, recombinant soluble human type 1 IL-1 …
Assay: ELISA on biotinylated human IL-1R on streptavidin plates
Protocol: The relative immunactivity of the antibodies as compared to 2D8 antibody was determined by ELISA. A soluble biotinylated human IL-1R was coated at room temperature for one hour to 96-well-plates (precoated with streptavidin). After blocking with BSA the antibody was diluted and added to the wells and incubated at room temperature for two hours. The plates were washed three times and incubated with horse-radish-peroxidase (POD)-conjugated rabbit-anti-rat-IgG at room temperature for one hour. After further washing the amount of bound antibody was determined by addition of TM-Blue® ([…]) and measurement of the absorbance at 370 nm.

Binder | ELISA (absorbance at 370 nm in relation to 2D8), 1st experiment | ELISA (absorbance at 370 nm in relation to 2D8), 2nd experiment | ELISA (absorbance at 370 nm in relation to 2D8), mean
B6 | 1.3 relative to 2D8 | 1.6 relative to 2D8 | 1.4 relative to 2D8
B8 | 3 relative to 2D8 | 2.2 relative to 2D8 | 2.6 relative to 2D8
B9 | 3.1 relative to 2D8 | 3.4 relative to 2D8 | 3.3 relative to 2D8
B10 | 1.4 relative to 2D8 | 1.8 relative to 2D8 | 1.6 relative to 2D8
B11 | 2.1 relative to 2D8 | 2.2 relative to 2D8 | 2.2 relative to 2D8
B12 | 1.5 relative to 2D8 | 2.6 relative to 2D8 | 2.1 relative to 2D8
B13 | 1.5 relative to 2D8 | 1.8 relative to 2D8 | 1.7 relative to 2D8
B14 | 2.2 relative to 2D8 | 2.1 relative to 2D8 | 2.2 relative to 2D8
